According to paper PMC11022571, “Functional analysis of feedback inhibition-insensitive aspartate kinase identified in a threonine-accumulating mutant of Saccharomyces cerevisiae” (Applied and Environmental Microbiology, 2024):
Positions count from the first letter of the chain named. In names and notes the source's numbering stands.

B1: Hom3 (aspartate kinase, AK) (Saccharomyces cerevisiae S288C) (protein)
chain: MPMDFQPTSSHSNWVVQKFGGTSVGKFPVQIVDDIVKHYSKPDGPNNNVAVVCSARSSYTKAEGTTSRLLKCCDLASQESEFQDIIEVIRQDHIDNADRFILNPALQAKLVDDTNKELELVKKYLNASKVLGEVSSRTVDLVMSCGEKLSCLFMTALCNDRGCKAKYVDLSHIVPSDFSASALDNSFYTFLVQALKEKLAPFVSAKERIVPVFTGFFGLVPTGLLNGVGRGYTDLCAALIAVAVNADELQVWKEVDGIFTADPRKVPEARLLDSVTPEEASELTYYGSEVIHPFTMEQVIRAKIPIRIKNVQNPLGNGTIIYPDNVAKKGESTPPHPPENLSSSFYEKRKRGATAITTKNDIFVINIHSNKKTLSHGFLAQIFTILDKYKLVVDLISTSEVHVSMALPIPDADSLKSLRQAEEKLRILGSVDITKKLSIVSLVGKHMKQYIGIAGTMFTTLAEEGINIEMISQGANEINISCVINESDSIKALQCIHAKLLSERTNTSNQFEHAIDERLEQLKRLGI
B2: Hom3 (aspartate kinase, AK) (Saccharomyces cerevisiae S288C; A462T) (protein)
chain: B1 chain with A462T

Assays:
[1] = target: T1, Hom3 (aspartate kinase, AK) (Saccharomyces cerevisiae, UniProt P10869); experiment: PK/LDH-coupled AK assay at […] Asp and […] ATP; BN-PAGE shift from ~[…] to ~[…] kDa with […] Thr; type: biochemical
T1 sequence (P10869 1-527): B1 chain

[2] = substrate: N[C@@H](CC(=O)O)C(=O)O; experiment: steady-state kinetics (Km), PK/LDH-coupled assay; type: biochemical, Saccharomyces cerevisiae; details: Mg2+ ([…] MgSO4 in assay)
[3] = substrate: Nc1ncnc2c1ncn2[C@@H]1O[C@H](COP(=O)(O)OP(=O)(O)OP(=O)(O)O)[C@@H](O)[C@H]1O; experiment: steady-state kinetics (Km), PK/LDH-coupled assay; type: biochemical, Saccharomyces cerevisiae; details: Mg2+ ([…] MgSO4 in assay)

| Molecule | IC50 [1] [mM] | Km [2] [µM] | kcat [2] [s⁻¹] | kcat/Km [2] [M⁻¹ s⁻¹] | Km [3] [µM] | kcat [3] [s⁻¹] | kcat/Km [3] [M⁻¹ s⁻¹] |
| --- | --- | --- | --- | --- | --- | --- | --- |
| C[C@@H](O)[C@H](N)C(=O)O [threonine] | 5.4 ± 0.12 |  |  |  |  |  |  |
| B1 |  | 3800 ± 360 | 55 ± 1.5 | 15000 | 830 ± 44 | 54 ± 0.78 | 65000 |
| B2 |  | 4400 ± 370 | 55 ± 1.4 | 13000 | 1000 ± 71 | 53 ± 1.1 | 51000 |
